Residue numbers refer to the chain shown, from its start.
Key:
[1] = molecular target: T1, Src-phosphorylated C3G-AAAP (human, UniProt Q13905-1 4-1077, P283A | P284A | L286 | P287 | P289A | P453A | P454A | L456A | P457A | K459A | …, phosphotyrosines from phosphorylation in vitro with Src (sites not given)); test: ITC; single-PRM mutant of C3G in the cell titrated with CrkL or CrkL-SH3N, 25 °C, 300 mM NaCl, pH 7.5; SEDPHAT, 1:1 heteroassociation model; N is the competent fraction of C3G; details: both partners purified
T1 construct: human C3G isoform a, residues 4-1077; only P4 kept, P1, P2 and P3 mutated to Ala; also called pC3G-AAAP; source: E. coli BL21 (DE3), purified; phosphorylated in vitro with the recombinant kinase domain of Src, then SEC; not shown: His, N-terminal, cleaved; Halo, N-terminal, cleaved
T1 sequence (looked up): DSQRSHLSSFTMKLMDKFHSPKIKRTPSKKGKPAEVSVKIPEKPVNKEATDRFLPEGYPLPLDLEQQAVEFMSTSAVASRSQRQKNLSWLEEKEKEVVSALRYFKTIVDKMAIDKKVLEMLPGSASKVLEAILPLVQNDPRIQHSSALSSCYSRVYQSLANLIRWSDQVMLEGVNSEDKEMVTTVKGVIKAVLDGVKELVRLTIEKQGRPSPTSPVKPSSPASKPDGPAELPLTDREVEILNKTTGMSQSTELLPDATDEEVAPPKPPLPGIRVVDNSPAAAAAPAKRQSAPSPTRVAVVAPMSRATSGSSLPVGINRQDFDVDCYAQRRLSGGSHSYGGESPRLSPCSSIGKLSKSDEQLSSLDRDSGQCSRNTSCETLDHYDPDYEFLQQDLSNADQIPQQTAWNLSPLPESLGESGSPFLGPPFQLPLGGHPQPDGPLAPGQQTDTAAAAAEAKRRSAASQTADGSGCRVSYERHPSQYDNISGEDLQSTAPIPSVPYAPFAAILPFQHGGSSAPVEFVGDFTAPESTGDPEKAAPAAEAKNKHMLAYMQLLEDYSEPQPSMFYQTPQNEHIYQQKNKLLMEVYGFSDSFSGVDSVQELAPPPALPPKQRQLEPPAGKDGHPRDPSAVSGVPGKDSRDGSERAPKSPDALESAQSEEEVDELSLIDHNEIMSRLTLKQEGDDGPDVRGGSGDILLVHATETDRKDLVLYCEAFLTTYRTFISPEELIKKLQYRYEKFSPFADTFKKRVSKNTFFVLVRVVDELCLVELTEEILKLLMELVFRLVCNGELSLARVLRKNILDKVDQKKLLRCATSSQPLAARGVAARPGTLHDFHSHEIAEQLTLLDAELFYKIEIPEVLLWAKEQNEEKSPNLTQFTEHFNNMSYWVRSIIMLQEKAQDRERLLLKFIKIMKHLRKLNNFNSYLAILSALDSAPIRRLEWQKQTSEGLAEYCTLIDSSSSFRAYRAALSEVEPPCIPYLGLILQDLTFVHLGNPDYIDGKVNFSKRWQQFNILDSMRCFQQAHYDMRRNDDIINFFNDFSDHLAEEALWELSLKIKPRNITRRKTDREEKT

[2] = molecular target: T2, Src-phosphorylated C3G-AAPA (human, UniProt Q13905-1 4-1077, P283A | P284A | L286 | P287 | P289A | P453A | P454A | L456A | P457A | K459A | …, phosphotyrosines from phosphorylation in vitro with Src (sites not given)); test: as above; details: both partners purified
T2 construct: human C3G isoform a, residues 4-1077; only P3 kept, P1, P2 and P4 mutated to Ala; also called pC3G-AAPA; source: E. coli BL21 (DE3), purified; phosphorylated in vitro with the recombinant kinase domain of Src, then SEC; not shown: His, N-terminal, cleaved; Halo, N-terminal, cleaved
T2 sequence (looked up): T1 sequence (looked up) with A537P, A538P, A540L, A541P, A543K, P605A, P606A, L608A, P609A, K611A

Kd [1]: 2400 nM
stoichiometry N [1]: 0.74
Kd [2]: 2100 nM
stoichiometry N [2]: 0.08
B1: CrkL-SH3N (domain or fragment, human, UniProt P46109 125-182, looked up)
chain: LEYVRTLYDFPGNDAEDLPFKKGEILVIIEKPEEQWWSARNKDGRVGMIPVPYVEKLV
notes: human CrkL, SH3N domain, residues 125-182, in pETEV15b; source: E. coli BL21 (DE3), purified (IMAC, TEV digestion, SEC); not shown: His, N-terminal, cleaved

Source: PMC9896810, “Crk proteins activate the Rap1 guanine nucleotide exchange factor C3G by segregated adaptor-dependent and -independent mechanisms” (Cell Communication and Signaling : CCS, 2023)
